These results are taken from paper PMC5014153, “Overexpression of an Arabidopsis cysteine-rich receptor-like protein kinase, CRK5, enhances abscisic acid sensitivity and confers drought tolerance”.

Assay in all cases: EMSA; 25 mM Hepes pH 8.0, 40 mM KCl, 5 mM MgCl2, 1 mM DTT, 1 mM EDTA, 8% glycerol; 50 ng protein, 20 fmol probe; 30 min at 28 C; native PAGE
Background: In EMSA bound probe runs differently from free probe, usually more slowly.

The target of one series is 6xHis-WRKY60 (Arabidopsis thaliana, UniProt Q9SK33 1-271). The note with it: protein: recombinant, tags: N-terminal Trx, HRV 3C site (pET48b), label: 5' biotin on each strand, blunt.
Chain of 6xHis-WRKY60 (Q9SK33 whole entry): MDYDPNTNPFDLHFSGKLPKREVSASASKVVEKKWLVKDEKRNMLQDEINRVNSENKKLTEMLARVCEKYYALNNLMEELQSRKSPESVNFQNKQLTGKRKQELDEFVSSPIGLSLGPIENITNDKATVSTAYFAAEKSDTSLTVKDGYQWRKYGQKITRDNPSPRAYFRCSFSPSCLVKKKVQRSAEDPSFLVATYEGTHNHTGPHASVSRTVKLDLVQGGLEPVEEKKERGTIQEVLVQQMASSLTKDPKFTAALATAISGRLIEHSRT
The target of a further series is 6xHis-WRKY18 (Arabidopsis thaliana, UniProt Q9C5T4 1-310). The note with it: protein: recombinant, tags: N-terminal Trx, HRV 3C site (pET48b), chain copies: 2, label: 5' biotin on each strand, blunt.
Chain of 6xHis-WRKY18 (Q9C5T4 whole entry): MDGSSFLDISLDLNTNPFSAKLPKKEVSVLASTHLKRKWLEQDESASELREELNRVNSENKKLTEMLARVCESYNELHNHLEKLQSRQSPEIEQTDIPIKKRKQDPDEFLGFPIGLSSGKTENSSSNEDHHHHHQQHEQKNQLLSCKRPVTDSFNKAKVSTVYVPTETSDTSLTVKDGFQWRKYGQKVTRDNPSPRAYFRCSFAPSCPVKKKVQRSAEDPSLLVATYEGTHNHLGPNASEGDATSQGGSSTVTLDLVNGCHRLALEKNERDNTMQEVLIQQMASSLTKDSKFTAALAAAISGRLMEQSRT
In the next series the target is T1, 6xHis-WRKY40 (Arabidopsis thaliana, UniProt Q9SAH7 1-302).
T1 sequence: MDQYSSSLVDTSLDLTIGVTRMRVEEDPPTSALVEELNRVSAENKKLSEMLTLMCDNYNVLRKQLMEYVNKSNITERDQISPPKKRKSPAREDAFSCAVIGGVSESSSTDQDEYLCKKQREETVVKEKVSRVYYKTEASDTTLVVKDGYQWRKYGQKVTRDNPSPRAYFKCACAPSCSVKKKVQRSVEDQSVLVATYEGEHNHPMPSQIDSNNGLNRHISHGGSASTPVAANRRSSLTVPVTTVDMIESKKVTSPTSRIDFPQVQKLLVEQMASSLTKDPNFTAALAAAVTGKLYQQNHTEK
The note with it: protein: recombinant, tags: N-terminal Trx, HRV 3C site (pET48b), label: 5' biotin on each strand, blunt.

B1: ProCRK5-1 (dsDNA)
DNA 1: TTGATGTTACTCGTCTAGTTGACCTTGACTTGCAAGATATTGTATTATTTTACAAAAACCAAAATTTGACTGGCTTGGCT
DNA 2: AGCCAAGCCAGTCAAATTTTGGTTTTTGTAAAATAATACAATATCTTGCAAGTCAAGGTCAACTAGACGAGTAACATCAA
For B1, the binding result with 6xHis-WRKY60 is on record as “no binding”; with 6xHis-WRKY18 it was “binds”; with 6xHis-WRKY40 it was “binds”.

B2: ProCRK5-1 mW1 (dsDNA)
DNA 1: TTGATGTTACTCGTCTAGTTGACCTTGACTTGCAAGATATTGTATTATTTTACAAAAACCAAAATTTAAATGGCTTGGCT
DNA 2: AGCCAAGCCATTTAAATTTTGGTTTTTGTAAAATAATACAATATCTTGCAAGTCAAGGTCAACTAGACGAGTAACATCAA
As for B2, the binding result in the series with 6xHis-WRKY18 and with 6xHis-WRKY40 was “binds” throughout.
